Primed or numbered codes have the meaning given here. *: point of attachment. FITC = O=C1OC2(c3ccc(O)cc3Oc3cc(O)ccc32)c2ccc(NC(=S)*)cc21; Dnp′ = not defined here; CH2Cl = ClC*
Tests used:
[1] = target: T1, SaPrp (Staphylococcus aureus, UniProt Q2FXS9, N63Q); type: biochemical; conditions: compound at 100 μM, FITC-conjugated peptide
T1 sequence (Q2FXS9 1-106 N63Q): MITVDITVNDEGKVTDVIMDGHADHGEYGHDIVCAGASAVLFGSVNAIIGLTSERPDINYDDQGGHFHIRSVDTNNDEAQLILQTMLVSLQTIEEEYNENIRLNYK

[2] = target: T1, SaPrp; test: Michaelis–Menten steady-state kinetics, cleavage of FITC-[…]-Dnp; type: biochemical
[3] = test system: SaPrp; test: Covalent complex formation with SaPrp, mass spectrometry; type: biochemical, Staphylococcus aureus; conditions: 2.6-fold molar excess over SaPrp, 1 h, room temperature
[4] = other cysteine proteases, means and standard deviations; cited from earlier work

With COC([CH2][Hg+])CNC(=O)c1ccccc1OCC(=O)O.[OH-] (stereo not drawn) [Compound 4, Mersalyl Acid] the “Inhibition of Prp at 100 μM” value [1] was “Prp could not cleave the peptide”.

Molecule “FITC-KLNLQFFASKK-Dnp ({FITC}-KLNLQFFASKK-{Dnp′}) [Compound 1]” has a Vmax ([2]; FITC-KLNLQFFASKK-Dnp substrate 0.2–20 μM, 48.2 nM SaPrp (monomer)) of 11 ± 4.0 nM/s and a kcat ([2]; FITC-KLNLQFFASKK-Dnp substrate, ET constrained to 42.8 nM active sites) of 0.26 ± 0.05 s^–1.

For “acetyl-KLNLQFF-chloromethylketone (Ac-KLNLQFF-CH2Cl; SMILES CC(=O)N[C@@H](CCCCN)C(=O)N[C@@H](CC(C)C)C(=O)N[C@@H](CC(N)=O)C(=O)N[C@@H](CC(C)C)C(=O)N[C@@H](CCC(N)=O)C(=O)N[C@@H](Cc1ccccc1)C(=O)N[C@@H](Cc1ccccc1)C(=O)CCl) [Ac-KLNLQFF-CMK]”, the “Formation of the covalent complex with SaPrp” value [3] was over 95%.

B1: papain: literature comparator cysteine protease (protein, UniProt P00784 134-345, looked up)
Papain: IPEYVDWRQKGAVTPVKNQGSCGSCWAFSAVVTIEGIIKIRTGNLNEYSEQELLDCDRRSYGCNGGYPWSALQLVAQYGIHYRNTYPYEGVQRYCRSREKGPYAAKTDGVRQVQPYNEGALLYSIANQPVSVVLEAAGKDFQLYRGGIFVGPCGNKVDHAVAAVGYGPNYILIKNSWGTGWGENGYIRIKRGTGNSYGVCGLYTSSFYPVKN
For B1, the kcat [4] is given as 0.0162 ± 0.000135 s^–1.

B2: μ-calpain: literature comparator cysteine protease (protein, UniProt P07384 2-714; P04632 1-268, looked up)
Calpain-1 catalytic subunit: SEEIITPVYCTGVSAQVQKQRARELGLGRHENAIKYLGQDYEQLRVRCLQSGTLFRDEAFPPVPQSLGYKDLGPNSSKTYGIKWKRPTELLSNPQFIVDGATRTDICQGALGDCWLLAAIASLTLNDTLLHRVVPHGQSFQNGYAGIFHFQLWQFGEWVDVVVDDLLPIKDGKLVFVHSAEGNEFWSALLEKAYAKVNGSYEALSGGSTSEGFEDFTGGVTEWYELRKAPSDLYQIILKALERGSLLGCSIDISSVLDMEAITFKKLVKGHAYSVTGAKQVNYRGQVVSLIRMRNPWGEVEWTGAWSDSSSEWNNVDPYERDQLRVKMEDGEFWMSFRDFMREFTRLEICNLTPDALKSRTIRKWNTTLYEGTWRRGSTAGGCRNYPATFWVNPQFKIRLDETDDPDDYGDRESGCSFVLALMQKHRRRERRFGRDMETIGFAVYEVPPELVGQPAVHLKRDFFLANASRARSEQFINLREVSTRFRLPPGEYVVVPSTFEPNKEGDFVLRFFSEKSAGTVELDDQIQANLPDEQVLSEEEIDENFKALFRQLAGEDMEISVKELRTILNRIISKHKDLRTKGFSLESCRSMVNLMDRDGNGKLGLVEFNILWNRIRNYLSIFRKFDLDKSGSMSAYEMRMAIESAGFKLNKKLYELIITRYSEPDLAVDFDNFVCCLVRLETMFRFFKTLDTDLDGVVTFDLFKWLQLTMFA
Calpain small subunit 1: MFLVNSFLKGGGGGGGGGGGLGGGLGNVLGGLISGAGGGGGGGGGGGGGGGGGGGGTAMRILGGVISAISEAAAQYNPEPPPPRTHYSNIEANESEEVRQFRRLFAQLAGDDMEVSATELMNILNKVVTRHPDLKTDGFGIDTCRSMVAVMDSDTTGKLGFEEFKYLWNNIKRWQAIYKQFDTDRSGTICSSELPGAFEAAGFHLNEHLYNMIIRRYSDESGNMDFDNFISCLVRLDAMFRAFKSLDKDGTGQIQVNIQEWLQLTMYS
For B2, the kcat [4] is given as 0.015 ± 0.002 s^–1.

From paper PMC9261936 (Biochemistry, 2022)
